From patent publication US20210205411A1, “CCR5 INHIBITOR FOR USE IN TREATING CANCER” (ORION BIOTECHNOLOGY SWITZERLAND SÀRL, priority 2018, published 2021)

What was measured:
HIV-1BaL = assay: HIV-1 replication assay in peripheral blood mononuclear cells; assay type: cell-based; settings: PBMC from a panel of US donors, FIG. 2
Description: For each donor, each compound was evaluated at 9 concentrations in triplicate. Each point represents log IC50 for an individual donor.

recombinant human CCR3 = target: T1, recombinant human CCR3 (Homo sapiens, UniProt P51677); assay: GTPγ35S functional assay, inhibition testing, CCR3; assay type: biochemical; settings: CHO-K1 membrane extracts; reference agonist at EC80; FIG. 3B
T1 construct: host or cells: CHO-K1 cells (membrane extracts)
T1 sequence (P51677 1-355): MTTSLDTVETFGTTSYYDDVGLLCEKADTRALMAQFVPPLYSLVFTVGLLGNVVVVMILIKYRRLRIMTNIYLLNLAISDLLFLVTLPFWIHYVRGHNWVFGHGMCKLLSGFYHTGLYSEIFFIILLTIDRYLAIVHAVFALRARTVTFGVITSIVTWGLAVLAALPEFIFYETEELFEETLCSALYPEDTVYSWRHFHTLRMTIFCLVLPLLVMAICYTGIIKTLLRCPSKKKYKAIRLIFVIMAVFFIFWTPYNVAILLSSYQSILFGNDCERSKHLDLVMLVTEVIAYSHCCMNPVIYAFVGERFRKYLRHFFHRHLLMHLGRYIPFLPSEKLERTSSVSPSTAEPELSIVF
Description: (§1) Assay buffer was 20 mM HEPES pH 7.4; 200mM NaCl, 10 μg/ml saponin, MgCl2 at optimized concentration for the specific receptor, 0.1% BSA. CHO-K1 cells expressing recombinant human receptor membrane extracts were thawed on ice, diluted in assay buffer and kept on ice. GDP was diluted in assay buffer to give optimized concentration for the specific receptor. Beads were PVT-WGA (PerkinElmer, RPNQ001), diluted in assay buffer at a concentration optimized for the specific receptor. GTPγ^35S (PerkinElmer NEG030X) was diluted in assay buffer to give 0.1 nM.
(§2) For inhibition testing, membranes were mixed with GDP and incubated for at least 15 min on ice. In parallel, GTPγ^35S was mixed with the beads just before starting the reaction. The following reagents were successively added in the wells of an Optiplate (PerkinElmer): 50 μL of test or reference ligand, 20 μL of the membranes:GDP mix, 10 μL of reference agonist at historical EC80 and 20 μL of the GTPγ^35S:beads mix.
(§3) The plates were covered with a top seal, mixed on an orbital shaker for 2 min, and then incubated for 1 hour at room temperature. Then the plates were centrifuged for 10 min at 2000 rpm, incubated at room temperature for 1 hour and counted for 1 min/well with a PerkinElmer TopCount reader. […]
(§4) Dose-response data were analyzed with XLfit (IDBS) software using nonlinear regression applied to a sigmoidal dose-response model.

[1] = Preclinical single dose intravenous infusion, rats; assay type: in vivo; settings: 20 mg/kg
From the text: (§5) These findings indicate that this N-terminally modified RANTES variant and its structurally related analogs have enhanced efficacy compared to MVC which is known to be therapeutically effective against several types of cancer, with very little side effects.

recombinant human CCR1 = target: T2, recombinant human CCR1 (Homo sapiens, UniProt P32246); assay: GTPγ35S functional assay, inhibition testing, CCR1; assay type: biochemical; settings: FIG. 3A
T2 construct: host or cells: CHO-K1 cells (membrane extracts)
T2 sequence (P32246 1-355): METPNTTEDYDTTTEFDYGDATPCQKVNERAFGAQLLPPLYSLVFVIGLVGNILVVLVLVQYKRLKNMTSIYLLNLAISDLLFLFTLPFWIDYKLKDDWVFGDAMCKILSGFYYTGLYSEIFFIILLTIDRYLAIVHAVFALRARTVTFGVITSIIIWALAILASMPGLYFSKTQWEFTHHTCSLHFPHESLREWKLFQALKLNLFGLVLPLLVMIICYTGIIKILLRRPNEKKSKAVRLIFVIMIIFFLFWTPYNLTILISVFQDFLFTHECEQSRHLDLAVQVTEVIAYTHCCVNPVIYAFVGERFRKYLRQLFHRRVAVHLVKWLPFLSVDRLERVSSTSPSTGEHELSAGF
Description: as §1, §2, §3, §4

[2] = Preclinical single dose intravenous infusion, cynomolgus macaques; assay type: in vivo; settings: 20 mg/kg
From the text: as §5

[3] = test system: CT-26 colorectal cancer cell line; assay: CT-26 colorectal cancer animal model; assay type: in vivo, BALB/c mice; settings: for tumor growth / mean tumor volume: intraperitoneal
From the text: In one experiment, BALB/c mice were inoculated subcutaneously with the CT-26 colorectal cancer cell line. […] Treatment was given daily or every third day.
In another experiment, BALB/c mice were inoculated subcutaneously with the CT-26 colorectal cancer cell line. […] 5P12-RANTES treatment was given five times a week.

human CCR5 [4] = target: T3, human CCR5 (Homo sapiens, UniProt P51681); assay: cell-based or functional assay
human CCR5 [5] = target: T3, human CCR5; assay: CCR5 signaling inhibition, aequorin calcium sensor in CHO cells, agonist human MIP-1β/CCL4; settings: read-out: IC50, inhibition of CCR5 signaling (FIG. 1C), CHO cells expressing human CCR5, agonist MIP-1β/CCL4, n=2
From the text: The signaling activity measured in the cells at each inhibitor concentration is expressed as a percentage of the signal elicited by the agonist in the absence of inhibitor (n=2) (FIGS. 1A, 1B and 1C).

T3 sequence (P51681 whole entry): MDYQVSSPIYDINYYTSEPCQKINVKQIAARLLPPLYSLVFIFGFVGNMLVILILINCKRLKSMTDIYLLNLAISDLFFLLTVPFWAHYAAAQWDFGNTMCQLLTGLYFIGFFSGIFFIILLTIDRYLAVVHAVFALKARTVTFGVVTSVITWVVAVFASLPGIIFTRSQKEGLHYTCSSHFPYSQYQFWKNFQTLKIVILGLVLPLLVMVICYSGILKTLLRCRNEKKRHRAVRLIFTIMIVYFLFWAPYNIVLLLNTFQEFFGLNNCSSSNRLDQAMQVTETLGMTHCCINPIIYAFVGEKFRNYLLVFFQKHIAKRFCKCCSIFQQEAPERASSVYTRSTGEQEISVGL

B1: 5P12-RANTES: N-terminally modified RANTES variant (SEQ ID NO: 70), CCR5 inhibitor (protein)
chain: QGPPLMATQSCCFAYIARPLPRAHIKEYFYTSGKCSNPAVVFVTRKNRQVCANPEKKWVREYINSLEMS
modifications: ends and bridges not checked
For B1, the “times more potent than MVC in inhibiting HIV-1 replication” value (HIV-1BaL) was 10-30 times, the “antagonism towards CCR3” value (recombinant human CCR3) was “no antagonism” and the adverse events [1] was “without any adverse events”. For the same molecule, the “antagonism of CCR1” value (recombinant human CCR1; CHO-K1 membrane extracts, reference agonist at EC80) was “no antagonism”, the “potentiation of CCR1 signaling” value (recombinant human CCR1; at the highest concentrations) was “moderate level of potentiation” and the adverse events [2] was “without any adverse events”. For the same molecule, the “adverse events during treatment” value ([3]; anti-CTLA-4 experiment, start ten days after inoculation) was “No adverse events”, the “adverse events during treatment” value ([3]; anti-PD-1 experiment, start three days after inoculation) was “No significant adverse events” and the “tumor growth / mean tumor volume” value ([3]; start ten days after inoculation, five times a week, anti-CTLA-4 experiment, FIG. 4B) was “delayed tumor growth at multiple time-points”. For the same molecule, the “tumor growth / mean tumor volume” value ([3]; start three days after inoculation, daily or every third day, anti-PD-1 experiment, FIG. 4A) was “statistically significant delayed tumor growth at multiple time-points”.

B2: PRO-140 (antibody, INN chains, looked up, V domains shown)
VH: EVQLVESGGGLVKPGGSLRLSCAASGYTFSNYWIGWVRQAPGKGLEWIGDIYPGGNYIRNNEKFKDKTTLSADTSKNTAYLQMNSLKTEDTAVYYCGSSFGSNYVFAWFTYWGQGTLVTVSS
VL: DIVMTQSPLSLPVTPGEPASISCRSSQRLLSSYGHTYLHWYLQKPGQSPQLLIYEVSNRFSGVPDRFSGSGSGTDFTLKISRVEAEDVGVYYCSQSTHVPLTFGQGTKVEIK
Work on B2 yielded an IC50 of inhibition of CCL4-induced CCR5 signaling (aequorin calcium sensor, CHO cells), FIG. 1C (human CCR5 [4]) of 5.6 nM and an IC50 (human CCR5 [5]) of 5.6 nM.
